From patent US20260184814A1, “BROADLY NE[…] INFLUENZA NEURAMINIDASE” (priority 2022, published 2026)
Numbering of substitutions follows the chain as printed.

Assays:
[1] = biological target: N2 neuraminidase from H3N2 A/Tanzania/205/2010 (Influenza A virus A/Tanzania/205/2010 (H3N2))
[2] = biological target: N9 Hong Kong/56/2015 (Influenza A virus); assay: SPR (Biacore), NA on anti-Avi chip, 1:1 model; NA code N9
[3] = biological target: A/N1 Vietnam/1203/2004 (Influenza A virus); assay: SPR (Biacore), NA on anti-Avi chip, 1:1 model; NA code NA-3
[4] = biological target: B/Perth/211/2011 (Influenza B virus); assay: SPR (Biacore), NA on anti-Avi chip, 1:1 model; NA code BNA-2
[5] = biological target: B/Massachusetts/02/2012(Yamagata) (Influenza B virus); assay: SPR (Biacore), NA on anti-Avi chip, 1:1 model; NA code BNA-3
[6] = biological target: B/Brisbane/602008 or 33/2008 (Victoria) (Influenza B virus); assay: SPR (Biacore), NA on anti-Avi chip, 1:1 model; NA code BNA-6
[7] = biological target: IBV neuraminidase from B/Malaysia/2506/2004 (Victoria) (Influenza B virus B/Malaysia/2506/2004); assay: SPR (Biacore), NA on anti-Avi chip, 1:1 model; NA code BNA-7
[8] = biological target: N2 A/Switzerland/8060/2017 (82-469) (Influenza A virus); assay: SPR (Biacore), NA on anti-Avi chip, 1:1 model; NA code NA-16 (+glyc245)
[9] = biological target: N2 A/Hong_Kong/2671/2019 (82-469) (Influenza A virus); assay: SPR (Biacore), NA on anti-Avi chip, 1:1 model; NA code NA-18 (+glyc245)
[10] = biological target: N2 neuraminidase from A/South Australia/34/2019 (Influenza A virus A/South Australia/34/2019); assay: SPR (Biacore), NA on anti-Avi chip, 1:1 model; NA code NA-17, 82-469 (+glyc245)
[11] = biological target: N2 neuraminidase from H3N2 A/Tanzania/205/2010 (Influenza A virus A/Tanzania/205/2010 (H3N2)); assay: SPR; NA-5; design: unit not given beside the values
[12] = biological target: N2 neuraminidase from A/South Australia/34/2019 (Influenza A virus A/South Australia/34/2019); assay: SPR; NA-17; design: unit not given beside the values
[13] = biological target: N2 A/Hong_Kong/2671/2019 (82-469) (Influenza A virus); assay: SPR; NA-18; design: unit not given beside the values
[14] = biological target: N2 neuraminidase from H3N2 A/Tanzania/205/2010 (Influenza A virus A/Tanzania/205/2010 (H3N2)); assay: SPR, 1:1 binding; NA-5 "-glyc245"
[15] = biological target: N2 neuraminidase from A/South Australia/34/2019 (Influenza A virus A/South Australia/34/2019); assay: SPR, 1:1 binding; NA-17 "+glyc245"
[16] = biological target: N2 A/Hong_Kong/2671/2019 (82-469) (Influenza A virus); assay: SPR, 1:1 binding; NA-18 "+glyc245"
N9 NA (FIGS. 96A-96C) [17] = assay: Bio-Layer Interferometry (BLI)
N9 NA (FIGS. 96A-96C) [18] = assay: Bio-Layer Interferometry (BLI); printed as ka
N9 NA (FIGS. 96A-96C) [19] = assay: Bio-Layer Interferometry (BLI); printed as kdis

B1: FNI9-v4.1 (antibody, V domains shown)
VH: QVHLVQSGAEVKEPGSSVTVSCKASGGSFSNQAISWVRQAPGQGLEWMGGIFPISGTPTSAQRFQGRVTFTADESTTTVYMDLSSLRSDDTAVYYCARAGSDYFNRDLGWENYYFASWGQGTLVTVSS
VL: EIVMTQSPATLSLSSGERATLSCRASRSVSSNLAWYQQKPGQAPRLLIYDASTRATGFSARFAGSGSGTEFTLTISSLQSEDSAIYYCQQYNNWPPWTFGQGTKVEIK
fold-change in affinity compared to FNI9-v1.1 [1]: 1.76 | fold-change in affinity compared to FNI9-v1.1 [2]: 1.31 | fold-change in affinity compared to FNI9-v1.1 [3]: 1.06 | fold-change in affinity compared to FNI9-v1.1 [4]: 1.48 | fold-change in affinity compared to FNI9-v1.1 [5]: 1.24 | fold-change in affinity compared to FNI9-v1.1 [6]: 0.78 | fold-change in affinity compared to FNI9-v1.1 [7]: 1.44 | fold-change in affinity compared to FNI9-v1.1 [8]: 1.06 | fold-change in affinity compared to FNI9-v1.1 [9]: 1.85 | fold-change in affinity compared to FNI9-v1.1 [10]: 1.3

B2: Fab FNI9-v8.1 (Fab, V domains shown)
VH: B1 VH with S28T, S30N
VL: B1 VL
KD compared to v1.1 [11]: 0.78 | KD compared to v1.1 [12]: 0.78 | KD compared to v1.1 [13]: 0.83 | Kd [14]: 2.57 nM | Kd [15]: 99.5 nM | Kd [16]: 8.64 nM

B3: FNI9-v9.1 (antibody, V domains shown)
VH: B1 VH with S30N, P58A, F70I
VL: B1 VL
fold-change in affinity compared to FNI9-v1.1 [1]: 0.81 | Kd (N9 NA (FIGS. 96A-96C) [17]): 0.19 nM | kon (N9 NA (FIGS. 96A-96C) [18]): 456000 M⁻¹ s⁻¹ | koff (N9 NA (FIGS. 96A-96C) [19]): 8.66e-05 s⁻¹ | fold-change in affinity compared to FNI9-v1.1 [2]: 8.43 | fold-change in affinity compared to FNI9-v1.1 [3]: 0.93 | fold-change in affinity compared to FNI9-v1.1 [4]: 1.59 | fold-change in affinity compared to FNI9-v1.1 [5]: 0.92 | fold-change in affinity compared to FNI9-v1.1 [6]: 0.81 | fold-change in affinity compared to FNI9-v1.1 [7]: 1.53 | fold-change in affinity compared to FNI9-v1.1 [8]: 0.93 | fold-change in affinity compared to FNI9-v1.1 [9]: 1.15 | fold-change in affinity compared to FNI9-v1.1 [10]: 2.99

B4: Fab FNI9-v4.1 (Fab, V domains shown)
VH: B1 VH
VL: B1 VL
KD compared to v1.1 [11]: 1.63 | KD compared to v1.1 [12]: 1.04 | KD compared to v1.1 [13]: 1.91 | Kd [14]: 5.35 nM | Kd [15]: 133 nM | Kd [16]: 19.9 nM

B5: FNI9-v8.1 (antibody, V domains shown)
VH: B1 VH with S28T, S30N
VL: B1 VL
fold-change in affinity compared to FNI9-v1.1 [1]: 0.98 | Kd (N9 NA (FIGS. 96A-96C) [17]): < 0.001 nM | kon (N9 NA (FIGS. 96A-96C) [18]): 463000 M⁻¹ s⁻¹ | koff (N9 NA (FIGS. 96A-96C) [19]): < 1e-07 s⁻¹ | fold-change in affinity compared to FNI9-v1.1 [2]: 1.1 | fold-change in affinity compared to FNI9-v1.1 [3]: 1.98 | fold-change in affinity compared to FNI9-v1.1 [4]: 1.03 | fold-change in affinity compared to FNI9-v1.1 [5]: 1.17 | fold-change in affinity compared to FNI9-v1.1 [6]: 0.92 | fold-change in affinity compared to FNI9-v1.1 [7]: 1.35 | fold-change in affinity compared to FNI9-v1.1 [8]: 0.98 | fold-change in affinity compared to FNI9-v1.1 [9]: 0.4 | fold-change in affinity compared to FNI9-v1.1 [10]: 1.2
